Substitutions are numbered along the chain they refer to. Numbers in names are those of the source.
B1: Rat PLCG1 (aa 21-1215) WT, recombinant (enzyme, UniProt P10686 21-1215, looked up)
chain: EVLHLCRSLEVGTVMTLFYSKKSQRPERKTFQVKLETRQITWSRGADKIEGSIDIREIKEIRPGKTSRDFDRYQEDPAFRPDQSHCFVILYGMEFRLKTLSLQATSEDEVNMWIKGLTWLMEDTLQAATPLQIERWLRKQFYSVDRNREDRISAKDLKNMLSQVNYRVPNMRFLRERLTDFEQRSGDITYGQFAQLYRSLMYSAQKTMDLPFLETNTLRTGERPELCQVSLSEFQQFLLEYQGELWAVDRLQVQEFMLSFLRDPLREIEEPYFFLDELVTFLFSKENSVWNSQLDAVCPETMNNPLSHYWISSSHNTYLTGDQFSSESSLEAYARCLRMGCRCIELDCWDGPDGMPVIYHGHTLTTKIKFSDVLHTIKEHAFVASEYPVILSIEDHCSIAQQRNMAQHFRKVLGDTLLTKPVDIAADGLPSPNQLKRKILIKHKKLAEGSAYEEVPTSVMYSENDISNSIKNGILYLEDPVNHEWYPHYFVLTSSKIYYSEETSSDQGNEDEEEPKEASGSTELHSSEKWFHGKLGAGRDGRHIAERLLTEYCIETGAPDGSFLVRESETFVGDYTLSFWRNGKVQHCRIHSRQDAGTPKFFLTDNLVFDSLYDLITHYQQVPLRCNEFEMRLSEPVPQTNAHESKEWYHASLTRAQAEHMLMRVPRDGAFLVRKRNEPNSYAISFRAEGKIKHCRVQQEGQTVMLGNSEFDSLVDLISYYEKHPLYRKMKLRYPINEEALEKIGTAEPDYGALYEGRNPGFYVEANPMPTFKCAVKALFDYKAQREDELTFTKSAIIQNVEKQDGGWWRGDYGGKKQLWFPSNYVEEMINPAILEPEREHLDENSPLGDLLRGVLDVPACQIAIRPEGKNNRLFVFSISMPSVAQWSLDVAADSQEELQDWVKKIREVAQTADARLTEGKMMERRKKIALELSELVVYCRPVPFDEEKIGTERACYRDMSSFPETKAEKYVNKAKGKKFLQYNRLQLSRIYPKGQRLDSSNYDPLPMWICGSQLVALNFQTPDKPMQMNQALFMAGGHCGYVLQPSTMRDEAFDPFDKSSLRGLEPCVICIEVLGARHLPKNGRGIVCPFVEIEVAGAEYDSTKQKTEFVVDNGLNPVWPAKPFHFQISNPEFAFLRFVVYEEDMFSDQNFLAQATFPVKGLKTGYRAVPLKNNYSEDLELASLLIKIDIFPAK
notes: Phospholipase C gamma 1, rat, aa 21-1215; PDB 6PBC (cited) is the structure of PLCG1 from that work; also called wild-type PLCG1; PLCG1 WT; source: expressed and purified as previous published protocol (Hajicek et al, 2019)
B2: Rat PLCG1 (aa 21-1215) D1165H, recombinant (enzyme, UniProt P10686 21-1215, looked up)
chain: B1 chain with D1145H
notes: Phospholipase C gamma 1, rat, aa 21-1215, with the human leukemia/lymphoma-associated mutation D1165H; also called recombinant PLCG1 D1165H protein; source: expressed and purified as previous published protocol (Hajicek et al, 2019)

Target: His6-ybbR-alpha-SMA, recombinant, assembled into filaments (human, UniProt P62736 1-377)
Test: co-sedimentation; actin co-pelleting (spin-down) assay: 4 µM α-SMA pre-assembled into filaments (with Rhodamine muscle actin), 0.4 µM PLCG1 and 1 µM myosin in 50 mM HEPES pH 7.4, 150 mM NaCl, 1 mM TCEP, 2 h at room temperature; high-speed centrifugation; supernatant and pellet on SDS-PAGE
Settings: both partners purified

Binder	binding result
B1	binds
B2	binds
